Legend:
[1] = target: human PI16 (Peptidase inhibitor 16) expressed on the cell surface (human) (UniProt Q6UXB8); assay: flow cytometry, ILT3Fc cross-linked with anti-human Fc antibody on PI16-transfected 3A9 cells
[2] = target: human PI16 (Peptidase inhibitor 16) expressed on the cell surface (human) (UniProt Q6UXB8); assay: flow cytometry, ILT3Fc on PI16-transfected 3A9 cells
[3] = target: ILT3-CD3z fusion protein on reporter cells (human); assay: cell-based or functional assay
Sequence of ILT3-CD3z fusion protein on reporter cells (human) (Q8NHJ6 22-259): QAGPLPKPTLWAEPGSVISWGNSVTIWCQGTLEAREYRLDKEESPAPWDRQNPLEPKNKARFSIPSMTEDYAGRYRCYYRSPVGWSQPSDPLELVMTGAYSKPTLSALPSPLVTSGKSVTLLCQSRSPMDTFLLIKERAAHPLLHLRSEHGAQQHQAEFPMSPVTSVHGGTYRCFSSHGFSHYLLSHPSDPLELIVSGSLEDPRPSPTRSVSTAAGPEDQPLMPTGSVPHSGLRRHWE

| Substance | percent of cells stained [1] [%] | percent of cells stained [2] [%] | luciferase activity of ILT3 reporter cells [3] [log] |
| --- | --- | --- | --- |
| ILT3Fc (Fc fusion) | 23 | 8.3 | – |
| human PI16 (Peptidase inhibitor 16) expressed on the cell surface (from UniProt Q6UXB8 28-463) (ligand) | – | – | 2 |

From patent US20190241655A1
